Legend:
[1] = system: GFP; assay: FP; details: negative control, little affinity
[2] = system: BamHI; assay: FP; details: negative control, little affinity

With random-sequence RNA the Kd [1] was > 4 µM and the Kd [2] was > 4 µM.

— patent US20250283164
